Assay results from patent publication US20220119534A1 (DRAGONFLY THERAPEUTICS, published 2022).

Key:
mFc-hNKG2D = biological target: T1, mFc-hNKG2D (human, UniProt P26718 73-216); assay: SPR Biacore 8K 37 C; mFc-hNKG2D captured on anti-mFc chip, TriNKET as analyte; 1:1 kinetic fit; after 4 wks 40 C in HST pH 6.0
T1 construct: extracellular domain; Made in house (Dragonfly Tx); the order of tag and ECD follows the name mFc-hNKG2D; also called mFc-tagged human NKG2D; not shown: mouse Fc tag
T1 sequence (looked up): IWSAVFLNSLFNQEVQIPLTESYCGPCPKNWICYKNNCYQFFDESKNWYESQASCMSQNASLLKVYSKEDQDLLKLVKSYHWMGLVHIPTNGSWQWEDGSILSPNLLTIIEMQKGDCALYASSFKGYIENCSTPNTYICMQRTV

[1] = biological target: T2, Human CLEC12A-His (recombinant, K244 WT) (human, UniProt Q5QGZ9 65-265); assay: SPR, two-state fit; after 4 wks 40C in HST pH 6.0
T2 construct: Made in house (Dragonfly Tx); also called hCLEC12A; hCLEC12A-His; not shown: His tag
T2 sequence: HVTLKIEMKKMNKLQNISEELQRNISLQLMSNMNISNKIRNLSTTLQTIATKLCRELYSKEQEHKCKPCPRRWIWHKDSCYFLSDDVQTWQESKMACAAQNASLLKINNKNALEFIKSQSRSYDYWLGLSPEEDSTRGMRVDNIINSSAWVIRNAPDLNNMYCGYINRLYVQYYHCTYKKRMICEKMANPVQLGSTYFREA

[2] = biological target: T2, Human CLEC12A-His (recombinant, K244 WT); assay: SPR, two-state fit; control sample
[3] = biological target: T2, Human CLEC12A-His (recombinant, K244 WT); assay: SPR, two-state fit; control sample; remark: listed apart in the source
[4] = biological target: T3, mFc-hNKG2D (recombinant mFc-tagged human NKG2D dimer) (human, UniProt P26718 73-216); assay: SPR 37C, 1:1 kinetic fit, average
T3 construct: extracellular domain; Made in house; not shown: mouse Fc tag
T3 sequence (looked up): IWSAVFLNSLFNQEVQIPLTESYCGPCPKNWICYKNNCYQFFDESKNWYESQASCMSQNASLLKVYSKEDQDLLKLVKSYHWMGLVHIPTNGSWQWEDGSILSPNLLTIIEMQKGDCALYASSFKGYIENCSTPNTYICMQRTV

[5] = biological target: T2, Human CLEC12A-His (recombinant, K244 WT); assay: SPR, two-state fit; fully purified protein after low pH hold
Human CD32b (FcγRIIb) = biological target: T4, Human CD32b (FcγRIIb) (human, UniProt P31994 46-217, limits assumed, biotinylated); assay: SPR 25C, average
T4 construct: Bought recombinant receptor; also called hFcγRIIb; CD32b (FcγR2b)
T4 sequence (looked up): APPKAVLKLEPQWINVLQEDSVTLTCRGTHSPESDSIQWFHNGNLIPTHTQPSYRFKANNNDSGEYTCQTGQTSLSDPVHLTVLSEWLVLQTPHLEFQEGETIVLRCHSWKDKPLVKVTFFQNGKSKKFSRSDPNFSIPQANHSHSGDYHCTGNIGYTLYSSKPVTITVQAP

Human CD32a H131 = biological target: T5, Human CD32a H131 (human, UniProt P12318 36-218, limits assumed, biotinylated); assay: SPR, summary of FcγR affinities
T5 construct: Bought recombinant receptor; also called hFcγRIIa H131
T5 sequence (looked up): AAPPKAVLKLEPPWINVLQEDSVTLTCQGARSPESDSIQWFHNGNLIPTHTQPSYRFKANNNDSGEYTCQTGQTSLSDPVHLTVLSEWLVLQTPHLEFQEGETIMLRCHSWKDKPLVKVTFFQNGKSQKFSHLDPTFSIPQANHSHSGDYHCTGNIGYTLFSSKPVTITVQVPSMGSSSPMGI

Human CD64 = biological target: T6, Human CD64 (human, UniProt P12314 16-288, biotinylated); assay: SPR, summary of FcγR affinities
T6 construct: Bought recombinant receptor; also called hFcγRI; Human CD64 (FcγRI)
T6 sequence (P12314 16-288 limits assumed): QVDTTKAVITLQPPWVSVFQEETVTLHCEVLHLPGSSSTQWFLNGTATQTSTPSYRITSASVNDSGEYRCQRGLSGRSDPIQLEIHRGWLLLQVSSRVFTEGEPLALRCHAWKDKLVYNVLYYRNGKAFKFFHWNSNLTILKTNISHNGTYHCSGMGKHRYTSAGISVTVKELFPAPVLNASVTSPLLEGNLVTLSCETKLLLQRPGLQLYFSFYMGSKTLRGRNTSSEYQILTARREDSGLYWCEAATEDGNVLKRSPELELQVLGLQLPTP

Human CLEC12A-His = biological target: T7, Human CLEC12A-His (human, UniProt Q5QGZ9 65-265); assay: SPR, untreated CLEC12A; average of 3 replicates
T7 construct: Recombinant soluble protein made in house; also called hCLEC12A-His; hCLEC12A; not shown: His tag
T7 sequence: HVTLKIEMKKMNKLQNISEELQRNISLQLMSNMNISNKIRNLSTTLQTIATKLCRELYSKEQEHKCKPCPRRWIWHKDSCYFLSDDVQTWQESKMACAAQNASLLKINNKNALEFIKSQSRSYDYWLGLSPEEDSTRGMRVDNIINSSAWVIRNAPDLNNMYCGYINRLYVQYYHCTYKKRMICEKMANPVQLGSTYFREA

Cynomolgus CD16 = biological target: T8, Cynomolgus CD16 (cynomolgus monkey, UniProt Q8SPW2 17-208, biotinylated); assay: SPR, steady state fit; average for AB0192
T8 construct: Bought recombinant receptor; also called cFcγRIII; Cynomolgus FcγRIII
T8 sequence (Q8SPW2 17-208 limits assumed): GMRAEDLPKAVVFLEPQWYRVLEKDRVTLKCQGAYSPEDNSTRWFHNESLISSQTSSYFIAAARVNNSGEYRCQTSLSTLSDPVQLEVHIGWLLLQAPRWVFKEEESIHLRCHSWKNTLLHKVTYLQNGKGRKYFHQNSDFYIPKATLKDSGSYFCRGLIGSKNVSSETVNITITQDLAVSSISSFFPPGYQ

Human CD16a F158 = biological target: T9, Human CD16a F158 (human, UniProt P08637 17-208, biotinylated); assay: SPR, steady state fit; average for AB0192
T9 construct: Bought recombinant receptor; also called hFcγRIIIa F158
T9 sequence (P08637 17-208 limits assumed): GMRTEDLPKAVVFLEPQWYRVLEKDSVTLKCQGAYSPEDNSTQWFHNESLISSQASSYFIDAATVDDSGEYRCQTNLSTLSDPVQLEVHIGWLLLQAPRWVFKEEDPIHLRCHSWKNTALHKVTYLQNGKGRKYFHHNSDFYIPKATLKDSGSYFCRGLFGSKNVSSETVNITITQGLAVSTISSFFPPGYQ

B1: F3'-1602 TriNKET (bispecific antibody, human IgG1, kappa)
chain: QLQLQESGPGLVKPSETLSLTCTVSGFSLTNYGLHWIRQPPGKCLEWIGVIWSGGKTDYNPSLKSRVTISKDTSKNQFSLKLSSVQAADTAVYYCAKYDYDDSLDYWGQGTLVTVSSGGGGSGGGGSGGGGSGGGGSDIQMTQSPSSLSASVGDRVTITCHASQNINFWLSWYQQKPGKAPKLLIYEASNLHTGVPSRFSGSGSGTRFTLTISSLQPEDIATYYCQQSHSYPLTFGCGTKLEIKGSDKTHTCPPCPAPELLGGPSVFLFPPKPKDTLMISRTPEVTCVVVDVSHEDPEVKFNWYVDGVEVHNAKTKPREEQYNSTYRVVSVLTVLHQDWLNGKEYKCKVSNKALPAPIEKTISKAKGQPREPRVYTLPPCRDELTKNQVSLTCLVKGFYPSDIAVEWESNGQPENNYKTTPPVLVSDGSFTLYSKLTVDKSRWQQGNVFSCSVMHEALHNHYTQKSLSLSPG
heavy: EVQLVESGGGLVKPGGSLRLSCAASGFTFSSYSMNWVRQAPGKGLEWVSSISSSSSYIYYADSVKGRFTISRDNAKNSLYLQMNSLRAEDTAVYYCARGAPIGAAAGWFDPWGQGTLVTVSSASTKGPSVFPLAPSSKSTSGGTAALGCLVKDYFPEPVTVSWNSGALTSGVHTFPAVLQSSGLYSLSSVVTVPSSSLGTQTYICNVNHKPSNTKVDKKVEPKSCDKTHTCPPCPAPELLGGPSVFLFPPKPKDTLMISRTPEVTCVVVDVSHEDPEVKFNWYVDGVEVHNAKTKPREEQYNSTYRVVSVLTVLHQDWLNGKEYKCKVSNKALPAPIEKTISKAKGQPREPQVCTLPPSRDELTENQVSLTCLVKGFYPSDIAVEWESNGQPENNYKTTPPVLDSDGSFFLYSWLTVDKSRWQQGNVFSCSVMHEALHNHYTQKSLSLSPG
light: DIQMTQSPSSVSASVGDRVTITCRASQGISSWLAWYQQKPGKAPKLLIYAASSLQSGVPSRFSGSGSGTDFTLTISSLQPEDFATYYCQQGVSFPRTFGGGTKVEIKRTVAAPSVFIFPPSDEQLKSGTASVVCLLNNFYPREAKVQWKVDNALQSGNSQESVTEQDSKDSTYSLSSTLTLSKADYEKHKVYACEVTHQGLSSPVTKSFNRGEC
notes: Trispecific F3' format: CLEC12A scFv-Fc paired with NKG2D Fab-Fc; Stressed and control samples of the stability studies are the same molecule; also called AB0237
Work on B1 yielded a Kd (mFc-hNKG2D) of 0.762 µM, a koff (mFc-hNKG2D) of 0.0986 s⁻¹ and a kon (mFc-hNKG2D) of 129000 M⁻¹ s⁻¹.

B2: AB0089 TriNKET (bispecific antibody, human IgG1, kappa)
chain: QLQLQESGPGLVKPSETLSLTCTVSGFSLTNYGLHWIRQPPGKCLEWIGVIWVGGATDYNPSLKSRVTISVDTSKNQFSLKLSSVQAADTAVYYCAKGDYGDTLDYWGQGTLVTVSSGGGGSGGGGSGGGGSGGGGSDIQMTQSPSSLSASVGDRVTITCHASQNINFWLSWYQQKPGKAPKLLIYEASNLHTGVPSRFSGSGSGTDFTLTISSLQPEDFATYYCQQSHSYPLTFGCGTKLEIKGSDKTHTCPPCPAPELLGGPSVFLFPPKPKDTLMISRTPEVTCVVVDVSHEDPEVKFNWYVDGVEVHNAKTKPREEQYNSTYRVVSVLTVLHQDWLNGKEYKCKVSNKALPAPIEKTISKAKGQPREPRVYTLPPCRDELTKNQVSLTCLVKGFYPSDIAVEWESNGQPENNYKTTPPVLVSDGSFTLYSKLTVDKSRWQQGNVFSCSVMHEALHNHYTQKSLSLSPG
heavy: EVQLVESGGGLVKPGGSLRLSCAASGFTFSSYSMNWVRQAPGKGLEWVSSISSSSSYIYYADSVKGRFTISRDNAKNSLYLQMNSLRAEDTAVYYCARGAPIGAAAGWFDPWGQGTLVTVSSASTKGPSVFPLAPSSKSTSGGTAALGCLVKDYFPEPVTVSWNSGALTSGVHTFPAVLQSSGLYSLSSVVTVPSSSLGTQTYICNVNHKPSNTKVDKKVEPKSCDKTHTCPPCPAPELLGGPSVFLFPPKPKDTLMISRTPEVTCVVVDVSHEDPEVKFNWYVDGVEVHNAKTKPREEQYNSTYRVVSVLTVLHQDWLNGKEYKCKVSNKALPAPIEKTISKAKGQPREPQVCTLPPSRDELTENQVSLTCLVKGFYPSDIAVEWESNGQPENNYKTTPPVLDSDGSFFLYSWLTVDKSRWQQGNVFSCSVMHEALHNHYTQKSLSLSPG
light: DIQMTQSPSSVSASVGDRVTITCRASQGISSWLAWYQQKPGKAPKLLIYAASSLQSGVPSRFSGSGSGTDFTLTISSLQPEDFATYYCQQGVSFPRTFGGGTKVEIKRTVAAPSVFIFPPSDEQLKSGTASVVCLLNNFYPREAKVQWKVDNALQSGNSQESVTEQDSKDSTYSLSSTLTLSKADYEKHKVYACEVTHQGLSSPVTKSFNRGEC
notes: F3' format heterodimer of three chains; human IgG1 Fc with EW-RVT and Y349C/S354C mutations; also called AB0089 Lot AB0089-002; CLEC12A TriNKET AB0089
B2 gave a Kd [1] of 0.001 µM, a Kd [2] of 0.0009 µM and a Kd [3] of 0.0009 µM. The Kd [4] was 0.881 µM, the koff [4] was 0.143 s⁻¹ and the kon [4] was 162000 M⁻¹ s⁻¹. For the same binder, the Kd [5] was 0.00053 µM and the Kd (Human CD32b (FcγRIIb)) was 6.3 µM.

B3: AB0192 TriNKET (other)
chain: EVQLVESGGGVVQPGGSLRLSCAASGFTFNAFGMHWVRQAPGKCLEWVAFISSGSTSIYYANTVKGRFTISRDNSKNTLYLQMNSLRAEDTAVYYCARDGYPTGGAMDYWGQGTSVTVSSGGGGSGGGGSGGGGSGGGGSDIQMTQSPSSLSASVGDRVTITCKASQDIYNYLSWFQQKPGKAPKPLIYRANILVSGVPSRFSGSGSGQDYTFTISSLQPEDIATYYCLQFDAFPFTFGCGTKLEIKGSDKTHTCPPCPAPELLGGPSVFLFPPKPKDTLMISRTPEVTCVVVDVSHEDPEVKFNWYVDGVEVHNAKTKPREEQYNSTYRVVSVLTVLHQDWLNGKEYKCKVSNKALPAPIEKTISKAKGQPREPRVYTLPPCRDELTKNQVSLTCLVKGFYPSDIAVEWESNGQPENNYKTTPPVLVSDGSFTLYSKLTVDKSRWQQGNVFSCSVMHEALHNHYTQKSLSLSPG
heavy: EVQLVESGGGLVKPGGSLRLSCAASGFTFSSYSMNWVRQAPGKGLEWVSSISSSSSYIYYADSVKGRFTISRDNAKNSLYLQMNSLRAEDTAVYYCARGAPIGAAAGWFDPWGQGTLVTVSSASTKGPSVFPLAPSSKSTSGGTAALGCLVKDYFPEPVTVSWNSGALTSGVHTFPAVLQSSGLYSLSSVVTVPSSSLGTQTYICNVNHKPSNTKVDKKVEPKSCDKTHTCPPCPAPELLGGPSVFLFPPKPKDTLMISRTPEVTCVVVDVSHEDPEVKFNWYVDGVEVHNAKTKPREEQYNSTYRVVSVLTVLHQDWLNGKEYKCKVSNKALPAPIEKTISKAKGQPREPQVCTLPPSRDELTENQVSLTCLVKGFYPSDIAVEWESNGQPENNYKTTPPVLDSDGSFFLYSWLTVDKSRWQQGNVFSCSVMHEALHNHYTQKSLSLSPG
light: DIQMTQSPSSVSASVGDRVTITCRASQGISSWLAWYQQKPGKAPKLLIYAASSLQSGVPSRFSGSGSGTDFTLTISSLQPEDFATYYCQQGVSFPRTFGGGTKVEIKRTVAAPSVFIFPPSDEQLKSGTASVVCLLNNFYPREAKVQWKVDNALQSGNSQESVTEQDSKDSTYSLSSTLTLSKADYEKHKVYACEVTHQGLSSPVTKSFNRGEC
notes: the condition stands under assay; also called AB0192 Lot AB0192-005
Work on B3 yielded a Kd (Human CD32a H131) of 1.01 µM, a Kd (Human CD64) of 0.0052 µM and a Kd (Human CLEC12A-His) of 0.00165 µM. It also gave a koff (Human CLEC12A-His) of 0.00115 s⁻¹, a kon (Human CLEC12A-His) of 698000 M⁻¹ s⁻¹ and a Kd (Cynomolgus CD16) of 0.204 µM. The Kd (Human CD16a F158) was 0.68 µM.
